From the RNAGym collection of RNA variant scans (doi:10.1073/pnas.2313332121) come the findings set out here.

B1: TPR 5TU (parent)
chain: GGAUCUUCUCGAUCUAACAAAAAAGACAAAUCUGCCACAAAGCUUGAGAGCAUCUUCGGAUGCAGAGGCGGCAGCCUUCGGUGGCGCGAUAGCGCCAACGUUCUCAACUAUGACACGCAAAACGCGUGCUCCGUUGAAUGGAGUUUAUCAUG

Fewer inactive variants are shown than the library holds.

Variants of B1 are the subject of this series. As to the kind of experiment: polymerase ribozyme fitness, log enrichment relative to wild type (log ratio); higher = more active; in vitro selection for triplet polymerase activity. The procedure, abridged:
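A heterodimeric triplet polymerase ribozyme had each of its subunits mutagenized by PCR into a library, which was transcribed. One round of in vitro selection, done in triplicate, annealed each library with a biotinylated primer, its partner subunit and triplets, then incubated it frozen at −7 °C before gel excision of extended constructs, streptavidin-bead capture and RT-PCR. Fitness is the logarithm of genotype enrichment relative to wild-type enrichment, based on Illumina sequencing of inputs and outputs and inverse-variance-weighted replicate averages. A base-2 logarithm is used, and genotypes were kept only with ≥10 input reads and ≥1 read per output.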
Turning to A73U, the “polymerase ribozyme fitness (log ratio)” value is -0.424.

C76A C85A G92A G94U C103A C108U A122C: the “polymerase ribozyme fitness (log ratio)” value was at most -4.2.

With U77G G84C U148G, the “polymerase ribozyme fitness (log ratio)” value was at most -4.2. Turning to C75U G83C, the “polymerase ribozyme fitness (log ratio)” value was -1.13.

As for G81C G117C A138G, the “polymerase ribozyme fitness (log ratio)” value was -4.02. As for G81C A119U G128U, the figure is -2.99.

As for C72G G83A G100A, the “polymerase ribozyme fitness (log ratio)” value is at most -4.2.

For G81A U144C, the “polymerase ribozyme fitness (log ratio)” value is -1.41.

For the variant U77A G94A G140A, the “polymerase ribozyme fitness (log ratio)” value is at most -4.2. As for U78A G133A U139G, the figure is at most -4.2; as for A73U A91U A106C G136C, at most -4.2.

Consider A73G C85G, for which the “polymerase ribozyme fitness (log ratio)” value is -1.1. With U82C C95A the figure was -1.46; with C76U G86A, -0.246. With U78A C79U U82A G94U C96G G126A G141U the figure was at most -4.2. As for C76A A121G, the figure is 0.0173. For the variant C75U G84U U134C, the “polymerase ribozyme fitness (log ratio)” value was -1.39. As for C75G C87A, the figure is -3.89; as for C75U C85U A106C A122C U135A U145A, -3.69; as for C76U C118A, -2.21.

Turning to C76A G143U, the “polymerase ribozyme fitness (log ratio)” value is -3.02. Take U82A C95G C118U G126C: the “polymerase ribozyme fitness (log ratio)” value was -2.5. With C75U A91G A147C the figure was -3.68.

In the case of C76U C93U, the “polymerase ribozyme fitness (log ratio)” value was -2.28. With A73U G84A the figure was -2.32; with G81U A97U C105U, 0.976.

With G74U C96A C118U, the “polymerase ribozyme fitness (log ratio)” value was -3.97.

With G81C G84U, the “polymerase ribozyme fitness (log ratio)” value was -2.44. With C75A U90C C95U A107G U127G G141C the figure was at most -4.2.

C72G C93G C95U C118G A138C U145A: the “polymerase ribozyme fitness (log ratio)” value is at most -4.2.

As for A73G G143A, the “polymerase ribozyme fitness (log ratio)” value was -0.82.

As to G80A A91C A120G, the “polymerase ribozyme fitness (log ratio)” value is at most -4.2. Take C75A A89U G143C: the “polymerase ribozyme fitness (log ratio)” value is at most -4.2. With U78G G86U the figure was at most -4.2.

As to C76U U144A, the “polymerase ribozyme fitness (log ratio)” value is -1.08. As for G74A G92C, the figure is -2.84; as for G81C C85U A89U A142G, -1.67. As for C76A G86A, the figure is -2.06. Regarding C79A C87G, the “polymerase ribozyme fitness (log ratio)” value was at most -4.2. Take A73G G94A U148C: the “polymerase ribozyme fitness (log ratio)” value was -3.66. As for A73G C85A G124A, the “polymerase ribozyme fitness (log ratio)” value was -1.16. As for U78G C85G G140A, the figure is at most -4.2. For C75G G84A A107U A121U U151C, the “polymerase ribozyme fitness (log ratio)” value was at most -4.2. Consider C76G A97U, for which the “polymerase ribozyme fitness (log ratio)” value is at most -4.2. As for U77A C95U, the “polymerase ribozyme fitness (log ratio)” value was at most -4.2. Consider C76U C79U G83U G94A C105U C118G C132G G136A, for which the “polymerase ribozyme fitness (log ratio)” value was at most -4.2. Consider A73G G83C, for which the “polymerase ribozyme fitness (log ratio)” value is -2.56. Turning to A73U C76G G94A, the “polymerase ribozyme fitness (log ratio)” value is at most -4.2. With C75G C76U A97U G141C the figure was at most -4.2; with G81A G133U, -3.84. With G81A G133C the figure was -3.84; with G74A A122G, -3.39; with U82C C96G A120U U127G, -2.72. With G80A C85G the figure was -1.38; with C72U A89G C95A, -1.39. As to C76U C85U A138C U144A, the “polymerase ribozyme fitness (log ratio)” value is at most -4.2. With G80A C99G the figure was -1.02. For the variant C75U G92C U109A U146G, the “polymerase ribozyme fitness (log ratio)” value is -3.93. With A73U C108A A110C G133A the figure was at most -4.2. Take C72U A98G U134C: the “polymerase ribozyme fitness (log ratio)” value is -0.362. As for G80A G126A, the figure is -0.283; as for A73U C85A A147C, -2.75; as for U78C G84A G136U, -3.14. Consider G81U U82C C95U A120U, for which the “polymerase ribozyme fitness (log ratio)” value is -0.64. Turning to G80C U90G, the “polymerase ribozyme fitness (log ratio)” value was at most -4.2. With C76A A89C the figure was -0.238. With C75U C95U C96U the figure was -0.218. In the case of C76U C93U C105U, the “polymerase ribozyme fitness (log ratio)” value is -0.938. G74C G83A C95U G136A: the “polymerase ribozyme fitness (log ratio)” value was at most -4.2.

Consider C76G G83A U139A U146C U148C, for which the “polymerase ribozyme fitness (log ratio)” value is at most -4.2. As to C76U A122U, the “polymerase ribozyme fitness (log ratio)” value came out at 0.0697. As for G81A C87U, the figure is -1.73; as for C76A C85A A121G, -2.03; as for G81U G92C C116A G133C, -3.35.

With C72U C93U A97U A115U, the “polymerase ribozyme fitness (log ratio)” value was -3.88. As for U78G C99G C103A U109G, the figure is at most -4.2; as for C76U A119C C123U, 0.258. As for C72G C99G U139A, the figure is at most -4.2.

In the case of C76A C96U A121C, the “polymerase ribozyme fitness (log ratio)” value turned out to be 0.584.

In the case of C79U G86A C96U C149G, the “polymerase ribozyme fitness (log ratio)” value is at most -4.2.

As to A73G A122U G126U, the “polymerase ribozyme fitness (log ratio)” value is -0.405. Regarding C76A U90C U146G, the “polymerase ribozyme fitness (log ratio)” value was at most -4.2. For G80A A98C, the “polymerase ribozyme fitness (log ratio)” value is -2.19.
